Results taken from patent publication US20250059278A1 (SICHUAN HUIYU PHARMACEUTICAL, published 2025).
Read-outs that look alike come from different tables or passages of the source.

Tests used:
[1] = target: T1, mouse MSLN-his (Kaika Biotech, MSL-MM180) (mouse, UniProt Q61468 298-600, limits assumed); test: ELISA, coated muMSLN-his
T1 construct: Bought protein; also called muMSLN-his; muMSLN; not shown: his tag
T1 sequence (looked up): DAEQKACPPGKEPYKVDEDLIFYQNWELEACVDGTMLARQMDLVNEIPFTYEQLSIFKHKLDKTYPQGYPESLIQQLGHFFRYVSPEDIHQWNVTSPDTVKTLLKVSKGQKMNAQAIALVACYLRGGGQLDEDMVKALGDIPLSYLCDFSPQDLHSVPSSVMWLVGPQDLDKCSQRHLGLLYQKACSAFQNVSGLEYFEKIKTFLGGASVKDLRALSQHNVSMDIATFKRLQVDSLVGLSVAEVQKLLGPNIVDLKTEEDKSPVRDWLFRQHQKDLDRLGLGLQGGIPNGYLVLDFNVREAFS

[2] = target: T2, Human MSLN on MC38/MSLN stably transfected cells (Example 5) (human, UniProt Q13421 296-598); test: flow cytometry on MC38/MSLN cells
T2 construct: whole, on cells; also called MC38/MSLN cells; huMSLN
T2 sequence (Q13421 other isoform, or with tags, fused parts or gaps limits assumed): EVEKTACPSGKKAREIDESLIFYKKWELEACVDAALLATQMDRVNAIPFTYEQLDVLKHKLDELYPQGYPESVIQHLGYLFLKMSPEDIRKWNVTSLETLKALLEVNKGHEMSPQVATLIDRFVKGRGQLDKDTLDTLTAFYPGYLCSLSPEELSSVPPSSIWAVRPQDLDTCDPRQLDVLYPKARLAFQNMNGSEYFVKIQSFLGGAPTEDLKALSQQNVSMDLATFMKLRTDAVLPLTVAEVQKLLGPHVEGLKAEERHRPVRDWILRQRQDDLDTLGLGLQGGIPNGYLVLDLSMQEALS

[3] = target: T3, human MSLN-his (Kaika Biotech, MSL-HM18D) (human, UniProt Q13421 296-580, limits assumed); test: ELISA, coated huMSLN-his
T3 construct: Bought protein; also called huMSLN-his; huMSLN; not shown: his tag
T3 sequence (Q13421 other isoform, or with tags, fused parts or gaps limits assumed): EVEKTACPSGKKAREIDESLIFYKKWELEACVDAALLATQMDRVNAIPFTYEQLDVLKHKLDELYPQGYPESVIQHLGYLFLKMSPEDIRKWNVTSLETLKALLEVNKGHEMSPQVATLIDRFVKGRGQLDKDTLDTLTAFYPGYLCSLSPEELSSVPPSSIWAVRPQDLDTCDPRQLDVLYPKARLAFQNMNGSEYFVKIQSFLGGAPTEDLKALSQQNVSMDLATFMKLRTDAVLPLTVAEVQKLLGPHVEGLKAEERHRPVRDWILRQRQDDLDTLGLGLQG

[4] = target: T4, huMSLN-Fc (Kaika Biotech, MSL-HM280) (human, UniProt Q13421 296-580, limits assumed); test: SPR chip (Carterra), 3C6 captured by anti-DYKDDDDK, huMSLN-Fc in flow
T4 construct: Bought protein; also called huMSLN-hFc; hFc-tagged human MSLN recombinant protein; not shown: Fc (hFc) tag

[5] = target: T5, cynoMSLN-Fc (Kaika Biotech, MSL-CM280) (cyno); test: SPR chip (Carterra), 3C6 captured by anti-DYKDDDDK, cynoMSLN-Fc in flow
T5 construct: Bought protein

[6] = target: T6, monkey MSLN-his (Kaika Biotech, MSL-CM180) (monkey (cyno)); test: ELISA, coated cynoMSLN-his
T6 construct: Bought protein; also called cynoMSLN-his; cynoMSLN

[7] = target: T7, Human CD3 on Jurkat cells (human, UniProt P07766 23-207; P09693 23-182; P04234 22-171); test: cell-based or functional assay
[8] = target: T7, Human CD3 on Jurkat cells; test: flow cytometry on Jurkat cells
[9] = target: T8, Monkey CD3 on cynomolgus HSC-F cells (cynomolgus monkey, UniProt Q95LI5 22-198; Q95LI7 23-181; Q95LI8 22-171); test: flow cytometry on HSC-F cells
T8 construct: whole, on cells; also called Monkey CD3-expressing cynomolgus HSC-F cells; cynomolgus monkey CD3-expressing HSC-F cells

[10] = target: T8, Monkey CD3 on cynomolgus HSC-F cells; test: flow cytometry on HSC-F cells; remark: listed apart in the source
[11] = target: T7, Human CD3 on Jurkat cells; test: flow cytometry on Jurkat cells; remark: listed apart in the source
[12] = target: T9, Human CD3εγ recombinant antigen (acrobiosystems, Cat. No. CDG-H52W5) (human, UniProt P07766 23-126; P09693 23-116); test: SPR chip (Carterra), antibody captured, antigen in flow;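 note: antibodies captured through anti-human IgG Fc at roughly 1000 RU, kinetic constants fitted with a 1:1 binding model in Carterra analysis software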
T9 construct: Bought recombinant protein

B1: MSLN single-domain antibody 3C6 (VHH)
VHH: EVQLVESGGGLVQAGESLRLSCAVSGNIGSIRHMGWHRQDPGKERELVATITTVGTTYYANFVKGRFTISRDNAKNTVYLQMNSLKPEDTGVYYCRATAHPTDYWGQGTQVTVSS
notes: also called MSLN VHH
EC50 [1]: 28.6 nM | EC50 [2]: 11.8 nM | EC50 [3]: 0.463 nM | Kd [4]: 5.66 nM | koff [4]: 0.000304 s⁻¹ | kon [4]: 53600 M⁻¹ s⁻¹ | Kd [5]: 1.04 nM | koff [5]: 4.69e-05 s⁻¹ | kon [5]: 45300 M⁻¹ s⁻¹ | EC50 [6]: 0.788 nM

B2: Control antibody 1-3C6 (bispecific antibody, human IgG1, lambda)
heavy: not shown
light: QAVVTQESALTTSPGETVTLTCRSSTGAVTTSNYANWVQEKPDHLFTGLIGGTNKRAPGVPARFSGSLIGDKAALTITGAQTEDEAIYFCALWYSNLWVFGGGTKLTVLGQPKAAPSVTLFPPSSEELQANKATLVCLISDFYPGAVTVAWKADSSPVKAGVETTTPSKQSNNKYAASSYLSLTPEQWKSHRSYSCQVTHEGSTVEKTVAPTECS
EC50 (nM), activation of Jurkat-TIGIT-luc cells with MC38/MSLN tumor cells [7]: 0.036 nM | EC50 (nM), activation of T cell activation signaling pathway, Jurkat-TIGIT-luc cells without tumor cells [7]: 0.21 nM | EC50 [8]: 0.222 nM | EC50 [9]: 0.28 nM

B3: CD3 monoclonal antibody M36 (antibody, human IgG1, lambda, V domains shown)
VH: EVQLVESGGGLVQPGGSLRLSCAASGFTFNTYAMNWVRQAPGKGLEWVARIRSKYNNYATYYADSVKDRFTISRDDSKSSLYLQMNSLKTEDTAMYYCVRHSNFPNSYVSWFAYWGQGTLVTVSS
VL: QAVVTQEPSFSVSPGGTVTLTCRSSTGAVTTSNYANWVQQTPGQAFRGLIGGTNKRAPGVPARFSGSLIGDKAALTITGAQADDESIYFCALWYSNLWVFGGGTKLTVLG
notes: IgG: VH36 + IgG1 mutant CH, VL-1 + CL
EC50 [10]: 0.109 nM | EC50 [11]: 0.198 nM | Kd [12]: 1.69 nM | koff [12]: 0.0109 s⁻¹ | kon [12]: 6.46e+06 M⁻¹ s⁻¹

B4: CD3 monoclonal antibody M37 (antibody, human IgG1, lambda, V domains shown)
VH: EVQLVESGGGLVQPGGSLRLSCAASGFTFNTYAMNWVRQAPGKGLEWVARIRSKYNNYATYYADSVKDRFTISRDDSKSILYLQMNNLKTEDTAMYYCVRHANFSNSYVSWFAYWGQGTLVTVSS
VL: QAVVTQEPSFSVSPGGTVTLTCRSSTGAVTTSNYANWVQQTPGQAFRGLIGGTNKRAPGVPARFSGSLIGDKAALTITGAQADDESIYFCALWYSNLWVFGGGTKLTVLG
notes: IgG: VH37 + IgG1 mutant CH, VL-1 + CL
EC50 [10]: 0.398 nM | EC50 [11]: 0.211 nM | Kd [12]: 5.31 nM | koff [12]: 0.0043 s⁻¹ | kon [12]: 810000 M⁻¹ s⁻¹

B5: CD3 monoclonal antibody M39 (antibody, human IgG1, lambda, V domains shown)
VH: EVQLVESGGGLVQPGGSLRLSCAASGFTFNTYAMNWVRQAPGKGLEWVARIRSKYNNYATYYADSVKDRFTISRDDSKSSLYLQMNNLKTEDTAMYYCVRHQNFGNSYVSWFQYWGQGTLVTVSS
VL: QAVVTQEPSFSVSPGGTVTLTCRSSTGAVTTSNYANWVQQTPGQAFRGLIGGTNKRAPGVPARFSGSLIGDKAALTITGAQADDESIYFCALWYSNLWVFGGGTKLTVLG
notes: IgG: VH39 + IgG1 mutant CH, VL-1 + CL
EC50 [10]: 0.498 nM | EC50 [11]: 0.759 nM | Kd [12]: 29.7 nM | koff [12]: 0.0305 s⁻¹ | kon [12]: 1.02e+06 M⁻¹ s⁻¹

B6: CD3 monoclonal antibody M42 (antibody, human IgG1, lambda, V domains shown)
VH: EVQLVESGGGLVQPGGSLRLSCAASGFTFNTYAMNWVRQAPGKGLEWVARIRSKYNNYATYYADSVKGRFTISRDDSKSSLYLQMNNLKTEDTAMYYCVRHGNFQNSYVSWFQYWGQGTLVTVSS
VL: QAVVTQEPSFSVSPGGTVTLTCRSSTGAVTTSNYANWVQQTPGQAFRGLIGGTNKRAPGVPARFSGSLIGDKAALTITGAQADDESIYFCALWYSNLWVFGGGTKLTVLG
notes: IgG: VH42 + IgG1 mutant CH, VL-1 + CL
EC50 [10]: 0.143 nM | EC50 [11]: 0.431 nM | Kd [12]: 1.15 nM | koff [12]: 0.00137 s⁻¹ | kon [12]: 1.19e+06 M⁻¹ s⁻¹

B7: CD3 monoclonal antibody M46 (antibody, human IgG1, lambda, V domains shown)
VH: EVQLVESGGGLVQPGGSLRLSCAASGFTFNTYAMNWVRQAPGKGLEWVARIRSKYNNYATYYADSVKDRFTISRDDSKSILYLQMNSLKTEDTAMYYCVRHANFGNSYVSWFASWGQGTLVTVSS
VL: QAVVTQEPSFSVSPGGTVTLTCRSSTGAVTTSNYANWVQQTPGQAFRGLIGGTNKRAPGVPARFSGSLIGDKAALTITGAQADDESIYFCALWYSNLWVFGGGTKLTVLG
notes: IgG: VH46 + IgG1 mutant CH, VL-1 + CL
EC50 [10]: 0.148 nM | EC50 [11]: 0.338 nM | Kd [12]: 2.05 nM | koff [12]: 0.00205 s⁻¹ | kon [12]: 999000 M⁻¹ s⁻¹

B8: CD3 monoclonal antibody M40 (antibody, human IgG1, lambda, V domains shown)
VH: EVQLVESGGGLVQPGGSLRLSCAASGFTFNTYAMNWVRQAPGKGLEWVARIRSKYNNYATYYADSVKDRFTISRDDSKSSLYLQMNNLKTEDTAMYYCVRAGNFGNSYVSWFQYWGQGTLVTVSS
VL: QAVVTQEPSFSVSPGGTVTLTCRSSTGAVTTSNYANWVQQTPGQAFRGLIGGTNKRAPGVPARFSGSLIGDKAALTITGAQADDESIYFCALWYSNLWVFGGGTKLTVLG
notes: IgG: VH40 + IgG1 mutant CH, VL-1 + CL
EC50 [10]: 0.407 nM | EC50 [11]: 3.41 nM | Kd [12]: 1.28 nM | koff [12]: 0.00055 s⁻¹ | kon [12]: 431000 M⁻¹ s⁻¹

B9: CD3 monoclonal antibody M41 (antibody, human IgG1, lambda, V domains shown)
VH: EVQLVESGGGLVQPGGSLRLSCAASGFTFNTYAMNWVRQAPGKGLEWVARIRSKYNNYATYYADSVKGRFTISRDDSKSSLYLQMNNLKTEDTAMYYCVRHSNFQNSYVSWFAYWGQGTLVTVSS
VL: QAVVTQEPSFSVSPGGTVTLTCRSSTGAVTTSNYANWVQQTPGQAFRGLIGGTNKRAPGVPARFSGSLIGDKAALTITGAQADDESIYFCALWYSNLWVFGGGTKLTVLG
notes: IgG: VH41 + IgG1 mutant CH, VL-1 + CL
EC50 [10]: 0.13 nM | EC50 [11]: 0.751 nM | Kd [12]: 1.52 nM | koff [12]: 0.00513 s⁻¹ | kon [12]: 3.38e+06 M⁻¹ s⁻¹

B10: CD3 monoclonal antibody M45 (antibody, human IgG1, lambda, V domains shown)
VH: EVQLVESGGGLVQPGGSLRLSCAASGFTFNTYAMNWVRQAPGKGLEWVARIRSKYNNYATYYADSVKDRFTISRDDSKSSLYLQMNNLKTEDTAMYYCVRHSNFGNSYVSWFQYWGQGTLVTVSS
VL: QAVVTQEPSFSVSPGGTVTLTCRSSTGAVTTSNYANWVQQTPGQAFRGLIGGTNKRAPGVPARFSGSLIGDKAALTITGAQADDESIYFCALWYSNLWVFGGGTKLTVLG
notes: IgG: VH45 + IgG1 mutant CH, VL-1 + CL
EC50 [10]: 0.156 nM | EC50 [11]: 0.415 nM | Kd [12]: 1.87 nM | koff [12]: 0.00344 s⁻¹ | kon [12]: 1.85e+06 M⁻¹ s⁻¹

B11: CD3 monoclonal antibody M43 (antibody, human IgG1, lambda, V domains shown)
VH: EVQLVESGGGLVQPGGSLRLSCAASGFTFNTYAMNWVRQAPGKGLEWVARIRSKYNNYATYYADSVKDRFTISRDDSKSILYLQMNSLKTEDTAMYYCVRPGNFPNSYVSWFALWGQGTLVTVSS
VL: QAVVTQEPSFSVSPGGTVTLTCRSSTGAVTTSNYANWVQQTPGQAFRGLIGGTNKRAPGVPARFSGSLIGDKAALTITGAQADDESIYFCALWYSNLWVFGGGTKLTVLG
notes: IgG: VH43 + IgG1 mutant CH, VL-1 + CL
EC50 [10]: 8.24 nM | EC50 [11]: 10.2 nM | Kd [12]: 13.3 nM | koff [12]: 0.0016 s⁻¹ | kon [12]: 120000 M⁻¹ s⁻¹

B12: CD3 monoclonal antibody M38 (antibody, human IgG1, lambda, V domains shown)
VH: EVQLVESGGGLVQPGGSLRLSCAASGFTFNTYAMNWVRQAPGKGLEWVARIRSKYNNYATYYADSVKDRFTISRDDSKSSLYLQMNNLKTEDTAVYYCVRHGNFLNSYVSWFQYWGQGTLVTVSS
VL: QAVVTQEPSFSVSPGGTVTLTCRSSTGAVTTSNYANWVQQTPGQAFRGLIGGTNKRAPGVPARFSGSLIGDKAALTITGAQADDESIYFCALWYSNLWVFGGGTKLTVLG
notes: IgG: VH38 + IgG1 mutant CH, VL-1 + CL
EC50 [10]: 0.161 nM | EC50 [11]: 0.176 nM | Kd [12]: 2.33 nM | koff [12]: 0.00268 s⁻¹ | kon [12]: 1.15e+06 M⁻¹ s⁻¹

B13: CD3 monoclonal antibody M44 (antibody, human IgG1, lambda, V domains shown)
VH: EVQLVESGGGLVQPGGSLRLSCAASGFTFNTYAMNWVRQAPGKGLEWVARIRSKYNNYATYYADSVKDRFTISRDDSKSSLYLQMNNLKTEDTAMYYCVRHGNFQNSYISWFAYWGQGTLVTVSS
VL: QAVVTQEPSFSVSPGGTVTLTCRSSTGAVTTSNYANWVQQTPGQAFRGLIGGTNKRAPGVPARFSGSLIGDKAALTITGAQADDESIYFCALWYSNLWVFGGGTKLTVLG
notes: IgG: VH44 + IgG1 mutant CH, VL-1 + CL
EC50 [10]: 0.141 nM | EC50 [11]: 1.61 nM | Kd [12]: 3.33 nM | koff [12]: 0.00334 s⁻¹ | kon [12]: 1e+06 M⁻¹ s⁻¹

B14: Positive control bispecific antibody OKT3-3C6 (bispecific antibody, human IgG1, lambda)
heavy: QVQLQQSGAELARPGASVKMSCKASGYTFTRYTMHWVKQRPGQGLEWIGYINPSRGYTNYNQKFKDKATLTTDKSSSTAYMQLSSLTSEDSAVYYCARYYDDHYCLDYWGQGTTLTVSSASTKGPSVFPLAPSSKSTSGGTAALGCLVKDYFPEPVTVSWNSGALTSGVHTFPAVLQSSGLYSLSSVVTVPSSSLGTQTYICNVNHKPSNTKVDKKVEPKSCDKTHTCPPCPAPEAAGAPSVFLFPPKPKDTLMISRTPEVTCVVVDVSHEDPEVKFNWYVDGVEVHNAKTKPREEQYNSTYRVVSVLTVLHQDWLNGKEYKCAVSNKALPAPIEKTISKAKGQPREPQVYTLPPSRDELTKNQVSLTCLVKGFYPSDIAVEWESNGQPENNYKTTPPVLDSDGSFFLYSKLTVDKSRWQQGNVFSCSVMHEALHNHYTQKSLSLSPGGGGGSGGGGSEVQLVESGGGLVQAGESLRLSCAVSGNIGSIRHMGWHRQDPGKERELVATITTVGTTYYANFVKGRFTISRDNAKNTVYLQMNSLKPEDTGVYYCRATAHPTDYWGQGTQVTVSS
light: QIVLTQSPAIMSASPGEKVTMTCSASSSVSYMNWYQQKSGTSPKRWIYDTSKLASGVPAHFRGSGSGTSYSLTISGMEAEDAATYYCQQWSSNPFTFGSGTKLEIGQPKAAPSVTLFPPSSEELQANKATLVCLISDFYPGAVTVAWKADSSPVKAGVETTTPSKQSNNKYAASSYLSLTPEQWKSHRSYSCQVTHEGSTVEKTVAPTECS
EC50 [8]: 0.0736 nM | binding result [9]: no binding (tested: 2 µg/ml starting concentration)
